# Assay results reported in patent publication US20230143604A1, “QW DOSING OF GIP RECEPTOR AGONIST PEPTIDE COMPOUNDS AND USES THEREOF” (TAKEDA PHARMACEUTICAL COMPANY LIMITED, priority 2020, published 2023).
# Starred links: 1 amine or outer side, 2 acyl side, 3 side chain; linkers in the order of their positions; H or OH if unused. Non-standard residues stand in square brackets, D forms with d. Groups on a side chain read outwards from the residue. No end group written: not given here. *: point of attachment. 2OEGgEgE‑C18 diacid = O=C(O)CCCCCCCCCCCCCCCCC(=O)N[C@@H](CCC(=O)N[C@@H](CCC(=O)NCCOCCOCC(=O)NCCOCCOCC(=O)*)C(=O)O)C(=O)O; C20 diacid = O=C(O)CCCCCCCCCCCCCCCCCCC(=O)*; C18 diacid = O=C(O)CCCCCCCCCCCCCCCCC(=O)*; γGlu = O=C(O)[C@H](CCC(=O)[*:2])N[*:1]; NMeY = CN[C@@H](Cc1ccc(O)cc1)C(=O)O; AEEA = NCCOCCOCC(=O)O; E∗ = not defined here; K∗ = not defined here; Aib = CC(C)(N)C(=O)O
# T1: full-length human GIPR with an N-terminal FLAG tag (human, UniProt P48546 22-466)
# T1 sequence (looked up): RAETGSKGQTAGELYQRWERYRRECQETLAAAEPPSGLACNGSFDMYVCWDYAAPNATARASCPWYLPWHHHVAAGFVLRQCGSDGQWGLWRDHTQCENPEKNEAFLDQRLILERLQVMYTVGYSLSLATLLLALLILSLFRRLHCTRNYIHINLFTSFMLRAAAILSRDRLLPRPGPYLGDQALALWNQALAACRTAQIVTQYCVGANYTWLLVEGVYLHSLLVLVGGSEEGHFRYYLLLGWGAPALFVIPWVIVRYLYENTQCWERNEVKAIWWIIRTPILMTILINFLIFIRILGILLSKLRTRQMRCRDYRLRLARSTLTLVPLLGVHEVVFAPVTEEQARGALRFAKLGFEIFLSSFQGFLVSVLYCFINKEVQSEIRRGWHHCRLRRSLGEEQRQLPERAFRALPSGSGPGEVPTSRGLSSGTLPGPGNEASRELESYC
# T2: full-length human GIPR with an N-terminal FLAG tag, overexpressed on HEK-293T cells (human, UniProt P48546 22-466)
# T2 sequence (looked up): T1 sequence (looked up)
# B1: Compound No. 172 (peptide)
# peptide: H-Y[Aib]EGTFISDYSI[Aib]LDKIK([AEEA-AEEA-γGlu-C18 diacid])QADFVNWLLAQRG-OH
# SMILES: CC[C@H](C)[C@H](NC(=O)[C@H](CCCCN)NC(=O)[C@H](CC(=O)O)NC(=O)[C@H](CC(C)C)NC(=O)C(C)(C)NC(=O)[C@@H](NC(=O)[C@H](CO)NC(=O)[C@H](Cc1ccc(O)cc1)NC(=O)[C@H](CC(=O)O)NC(=O)[C@H](CO)NC(=O)[C@@H](NC(=O)[C@H](Cc1ccccc1)NC(=O)[C@@H](NC(=O)CNC(=O)[C@H](CCC(=O)O)NC(=O)C(C)(C)NC(=O)[C@@H](N)Cc1ccc(O)cc1)[C@@H](C)O)[C@@H](C)CC)[C@@H](C)CC)C(=O)N[C@@H](CCCCNC(=O)COCCOCCNC(=O)COCCOCCNC(=O)CC[C@H](NC(=O)CCCCCCCCCCCCCCCCC(=O)O)C(=O)O)C(=O)N[C@@H](CCC(N)=O)C(=O)N[C@@H](C)C(=O)N[C@@H](CC(=O)O)C(=O)N[C@@H](Cc1ccccc1)C(=O)N[C@H](C(=O)N[C@@H](CC(N)=O)C(=O)N[C@@H](Cc1c[nH]c2ccccc12)C(=O)N[C@@H](CC(C)C)C(=O)N[C@@H](CC(C)C)C(=O)N[C@@H](C)C(=O)N[C@@H](CCC(N)=O)C(=O)N[C@@H](CCCNC(=N)N)C(=O)NCC(=O)O)C(C)C
# B2: Compound No. 162 (peptide)
# peptide: H-Y[Aib]EGTFISDYSIALDK[Aib]K([AEEA-AEEA-γGlu-C18 diacid])QADFVEWLLAQRG-OH
# SMILES: CC[C@H](C)[C@H](NC(=O)[C@H](CO)NC(=O)[C@H](Cc1ccc(O)cc1)NC(=O)[C@H](CC(=O)O)NC(=O)[C@H](CO)NC(=O)[C@@H](NC(=O)[C@H](Cc1ccccc1)NC(=O)[C@@H](NC(=O)CNC(=O)[C@H](CCC(=O)O)NC(=O)C(C)(C)NC(=O)[C@@H](N)Cc1ccc(O)cc1)[C@@H](C)O)[C@@H](C)CC)C(=O)N[C@@H](C)C(=O)N[C@@H](CC(C)C)C(=O)N[C@@H](CC(=O)O)C(=O)N[C@@H](CCCCN)C(=O)NC(C)(C)C(=O)N[C@@H](CCCCNC(=O)COCCOCCNC(=O)COCCOCCNC(=O)CC[C@H](NC(=O)CCCCCCCCCCCCCCCCC(=O)O)C(=O)O)C(=O)N[C@@H](CCC(N)=O)C(=O)N[C@@H](C)C(=O)N[C@@H](CC(=O)O)C(=O)N[C@@H](Cc1ccccc1)C(=O)N[C@H](C(=O)N[C@@H](CCC(=O)O)C(=O)N[C@@H](Cc1c[nH]c2ccccc12)C(=O)N[C@@H](CC(C)C)C(=O)N[C@@H](CC(C)C)C(=O)N[C@@H](C)C(=O)N[C@@H](CCC(N)=O)C(=O)N[C@@H](CCCNC(=N)N)C(=O)NCC(=O)O)C(C)C
# B3: Compound No. 156 (peptide)
# peptide: Y[Aib]EGTFISDYSIALDK[Aib]AQRK([AEEA-AEEA-γGlu-γGlu-C18 diacid])FVEWLLAQRG-OH
# modifications: N-terminus assumed
# SMILES: CC[C@H](C)[C@H](NC(=O)[C@H](CO)NC(=O)[C@H](Cc1ccc(O)cc1)NC(=O)[C@H](CC(=O)O)NC(=O)[C@H](CO)NC(=O)[C@@H](NC(=O)[C@H](Cc1ccccc1)NC(=O)[C@@H](NC(=O)CNC(=O)[C@H](CCC(=O)O)NC(=O)C(C)(C)NC(=O)[C@@H](N)Cc1ccc(O)cc1)[C@@H](C)O)[C@@H](C)CC)C(=O)N[C@@H](C)C(=O)N[C@@H](CC(C)C)C(=O)N[C@@H](CC(=O)O)C(=O)N[C@@H](CCCCN)C(=O)NC(C)(C)C(=O)N[C@@H](C)C(=O)N[C@@H](CCC(N)=O)C(=O)N[C@@H](CCCNC(=N)N)C(=O)N[C@@H](CCCCNC(=O)COCCOCCNC(=O)COCCOCCNC(=O)CC[C@H](NC(=O)CC[C@H](NC(=O)CCCCCCCCCCCCCCCCC(=O)O)C(=O)O)C(=O)O)C(=O)N[C@@H](Cc1ccccc1)C(=O)N[C@H](C(=O)N[C@@H](CCC(=O)O)C(=O)N[C@@H](Cc1c[nH]c2ccccc12)C(=O)N[C@@H](CC(C)C)C(=O)N[C@@H](CC(C)C)C(=O)N[C@@H](C)C(=O)N[C@@H](CCC(N)=O)C(=O)N[C@@H](CCCNC(=N)N)C(=O)NCC(=O)O)C(C)C
# B4: Compound No. 49 (peptide)
# peptide: [NMeY][Aib]EGTFISDYSIALDR[Aib]K(2OEGgEgE‑C18 diacid)Q[Aib]DFVNWLLAQRG-OH
# modifications: N-terminus assumed
# SMILES: CC[C@H](C)[C@H](NC(=O)[C@H](CO)NC(=O)[C@H](Cc1ccc(O)cc1)NC(=O)[C@H](CC(=O)O)NC(=O)[C@H](CO)NC(=O)[C@@H](NC(=O)[C@H](Cc1ccccc1)NC(=O)[C@@H](NC(=O)CNC(=O)[C@H](CCC(=O)O)NC(=O)C(C)(C)NC(=O)[C@H](Cc1ccc(O)cc1)NC)[C@@H](C)O)[C@@H](C)CC)C(=O)N[C@@H](C)C(=O)N[C@@H](CC(C)C)C(=O)N[C@@H](CC(=O)O)C(=O)N[C@@H](CCCNC(=N)N)C(=O)NC(C)(C)C(=O)N[C@@H](CCCCNC(=O)COCCOCCNC(=O)COCCOCCNC(=O)CC[C@H](NC(=O)CC[C@H](NC(=O)CCCCCCCCCCCCCCCCC(=O)O)C(=O)O)C(=O)O)C(=O)N[C@@H](CCC(N)=O)C(=O)NC(C)(C)C(=O)N[C@@H](CC(=O)O)C(=O)N[C@@H](Cc1ccccc1)C(=O)N[C@H](C(=O)N[C@@H](CC(N)=O)C(=O)N[C@@H](Cc1c[nH]c2ccccc12)C(=O)N[C@@H](CC(C)C)C(=O)N[C@@H](CC(C)C)C(=O)N[C@@H](C)C(=O)N[C@@H](CCC(N)=O)C(=O)N[C@@H](CCCNC(=N)N)C(=O)NCC(=O)O)C(C)C
# B5: Compound No. 181 (peptide)
# peptide: Me-Y[Aib]EGTFISDYSIALDR[Aib]HQQ[E∗]FV[K∗]WLLAQK([AEEA-AEEA-γGlu-C18 diacid])PSSGAPPPS-NH2
# modifications: not fully specified (residue 1); reading uncertain; also: E* at 21 and K* at 24 marked, meaning not given here
# Target: full-length human GLP-1R with an N-terminal FLAG tag, overexpressed on HEK-293T cells (human, UniProt P43220 24-463)
# Assay: cell-based or functional assay
row,Binder,"Human GLP1R cAMP EC50, HEK293T [pM]"
1,YXEGTFISDYSIAMDKIHQQDFVNWLLAQXGKKNDWKHNITQ (N-TER cell blank; Aib at 2; Km at 30 = Lys(2OEGgE-C18DA); C-terminus OH) [Compound No. 189],219000
2,[NMeY][Aib]EGTFISDYSI[Aib]LDR[Aib]AQ[Aib]K([AEEA-AEEA-γGlu-γGlu-C20 diacid])FVNWLLAQRG-OH [Compound No. 159],11700
3,"YXEGTFISDYSIAXDKAAQQXFVEWLLAQRG (N-terminus H; Aib at 2, 14; Km at 21 = Lys(2OEGgEgE-C18DA); C-terminus OH) [Compound No. 157]",437000
4,"YXEGTFISDYSIAXDKAAQAXFVEWLLAQRG (N-terminus H; Aib at 2, 14; Km at 21 = Lys(2OEGgEgE-C18DA); C-terminus OH) [Compound No. 158]",339000
5,[NMeY][Aib]EGTFISDYSIALDR[Aib]AQ[Aib]K([AEEA-AEEA-γGlu-γGlu-C18 diacid])FVNWLLAQRG-OH [Compound No. 213],40700
6,H-Y[Aib]EGTFISDYSIALDKIK([AEEA-AEEA-γGlu-C18 diacid])Q[Aib]DFVEWLLAQRG-OH [Compound No. 160],537000
7,B1,93300
8,H-Y[Aib]EGTFISDYSIALDKAK([AEEA-AEEA-γGlu-C18 diacid])Q[Aib]DFVEWLLAQRG-OH [Compound No. 161],85100
9,B2,589000
10,B3,10200

# Target: T1, full-length human GIPR with an …
# Assay: cell-based or functional assay
row,Binder,"Human GIPR cAMP EC50, HEK293T [pM]"
1,B4,0.6
2,"YXEGTFISDYSIALDRXAQXDFVNWLLAQRPSSGAPPPS (N-methyl Tyr 1; Aib at 2,20; Lys(G5-C18 diacid) at 17; C-terminal OH) [Compound No. 51]",0.6

# Target: full-length human GLP-1R with an N-terminal FLAG tag (human, UniProt P43220 24-463)
# Assay: cell-based or functional assay
row,Binder,"Human GLP1R cAMP EC50, HEK293T [pM]"
1,B4,107000
2,"YXEGTFISDYSIALDRXAQXDFVNWLLAQRPSSGAPPPS (N-methyl Tyr 1; Aib at 2,20; Lys(G5-C18 diacid) at 17; C-terminal OH) [Compound No. 51]",14800

# Target: T2, full-length human GIPR with an …
# Assay: cell-based or functional assay
row,Binder,"Human GIPR cAMP EC50, HEK293T [pM]"
1,[NMeY][Aib]EGTFISDYSI[Aib]LDR[Aib]AQ[Aib]K([AEEA-AEEA-γGlu-γGlu-C20 diacid])FVNWLLAQRG-OH [Compound No. 159],0.9
2,"YXEGTFISDYSIAXDKAAQQXFVEWLLAQRG (N-terminus H; Aib at 2, 14; Km at 21 = Lys(2OEGgEgE-C18DA); C-terminus OH) [Compound No. 157]",0.3
3,"YXEGTFISDYSIAXDKAAQAXFVEWLLAQRG (N-terminus H; Aib at 2, 14; Km at 21 = Lys(2OEGgEgE-C18DA); C-terminus OH) [Compound No. 158]",0.5
4,B5,0.4
5,[NMeY][Aib]EGTFISDYSIAEDRKHQ[Aib]NFVNWLLAQK([AEEA-AEEA-γGlu-C18 diacid])PSSGAPPPS-NH2 (also: E* at 14 and K* at 17 marked * (not explained)) [Compound No. 184],0.5
6,H-Y[Aib]EGTFISDYSIALDKIK([AEEA-AEEA-γGlu-C18 diacid])Q[Aib]DFVEWLLAQRG-OH [Compound No. 160],0.3
7,[NMeY][Aib]EGTFISDYSI[Aib]LDK[Aib]AQ[Aib]K([AEEA-AEEA-γGlu-γGlu-C18 diacid])FVNWLLAQRG-OH [Compound No. 220],0.5
8,[NMeY][Aib]EGTFISDYSI[Aib]LDK[Aib]AQ[Aib]K([AEEA-AEEA-γGlu-γGlu-C18 diacid])FVNWLLAQRG-OH [Compound No. 211],0.5
9,H-Y[Aib]EGTFISDYSIALDKAK([AEEA-AEEA-γGlu-C18 diacid])Q[Aib]DFVEWLLAQRG-OH [Compound No. 161],0.1
10,B2,0.4
11,"Me-Y[Aib]EGTFISDYSI[Aib]LDR[Aib]AQ[Aib]KFVNWLLAQRG-OH (not fully specified (residues 1, 21)) [Compound No. 209]",0.4
12,B3,1.3
